Data set [1] relates to HeLa Kyoto. Nature of the data set: solubility in G1/S (NP-40 vs SDS abundance) (log2 ratio); higher = more soluble. The following applies: cell cycle stage: G1/S.
The subject of data set [2] is HeLa Kyoto. The data set is described as follows: solubility change mitosis vs G1/S (difference of NP-40 vs SDS log2 ratios) (log2 ratio difference); higher = more soluble in mitosis.
Data set [3] relates to HeLa Kyoto. Nature of the data set: thermal stability score vs G1/S (z-score of summed log2 fold changes over temperatures); higher = more thermally stable than in G1/S.
Data set [4] concerns HeLa Kyoto. Nature of the data set: melting temperature (median over replicates), in situ; higher = more thermally stable.
[5] abbreviates: cell cycle stage: early G1 (4.5 h after nocodazole release).
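For melting temperature (median over replicates), in situ in this document: HeLa Kyoto cells synchronized by double thymidine or nocodazole block, proteins quantified by TMT10plex mass spectrometry, three independent biological replicates.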
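For solubility change mitosis vs G1/S (difference of NP-40 vs SDS log2 ratios) in this document: synchronized HeLa Kyoto cells (double thymidine block for G1/S, nocodazole release for mitosis), protein amounts in NP-40 versus SDS lysates quantified by mass spectrometry, three biological replicates.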
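For solubility in G1/S (NP-40 vs SDS abundance) in this document: HeLa Kyoto cells arrested at G1/S by double thymidine block, proteins quantified by TMT10plex mass spectrometry in mild NP-40 versus SDS extracts, three biological replicates.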
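For thermal stability score vs G1/S (z-score of summed log2 fold changes over temperatures) in this document: synchronized HeLa Kyoto cells, proteins quantified by TMT10plex mass spectrometry, three biological replicates, mitosis taken 0.5 h after nocodazole release, G1/S directly after double thymidine block.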

As to “MDVLAEEFGNLTPEQLAAPIPTVEEKWRLLPAFLKVKGLVKQHIDSFNYFINVEIKKIMKANEKVTSDADPMWYLKYLNIYVGLPDVEESFNVTRPVSPHECRLRDMTYSAPITVDIEYTRGSQRIIRNALPIGRMPIMLRSSNCVLTGKTPAEFAKLNECPLDPGGYFIVKGVEKVILIQEQLSKNRIIVEADRKGAVGASVTSSTHEKKSRTNMAVKQGRFYLRHNTLSEDIPIVIIFKAMGVESDQEIVQMIGTEEHVMAAFGPSLEECQKAQIFTQMQALKYIGNKVRRQRMWGGGPKKTKIEEARELLASTILTHVPVKEFNFRAKCIYTAVMVRRVILAQGDNKVDDRDYYGNKRLELAGQLLSLLFEDLFKKFNSEMKKIADQVIPKQRAAQFDVVKHMRQDQITNGMVNAISTGNWSLKRFKMDRQGVTQVLSRLSYISALGMMTRISSQFEKTRKVSGPRSLQPSQWGMLCPSDTPEGEACGLVKNLALMTHITTDMEDGPIVKLASNLGVEDVNLLCGEELSYPNVFLVFLNGNILGVIRDHKKLVNTFRLMRRAGYINEFVSISTNLTDRCVYISSDGGRLCRPYIIVKKQKPAVTNKHMEELAQGYRNFEDFLHESLVEYLDVNEENDCNIALYEHTINKDTTHLEIEPFTLLGVCAGLIPYPHHNQSPRNTYQCAMGKQAMGTIGYNQRNRIDTLMYLLAYPQKPMVKTKTIELIEFEKLPAGQNATVAVMSYSGYDIEDALVLNKASLDRGFGRCLVYKNAKCTLKRYTNQTFDKVMGPMLDAATRKPIWRHEILDADGICSPGEKVENKQVLVNKSMPTVTQIPLEGSNVPQQPQYKDVPITYKGATDSYIEKVMISSNAEDAFLIKMLLRQTRRPEIGDKFSSRHGQKGVCGLIVPQEDMPFCDSGICPDIIMNPHGFPSRMTVGKLIELLAGKAGVLDGRFHYGTAFGGSKVKDVCEDLVRHGYNYLGKDYVTSGITGEPLEAYIYFGPVYYQKLKHMVLDKMHARARGPRAVLTRQPTEGRSRDGGLRLGEMERDCLIGYGASMLLLERLMISSDAFEVDVCGQCGLLGYSGWCHYCKSSCHVSSLRIPYACKLLFQELQSMNIIPRLKLSKYNE [POLR3B]”, the “solubility in G1/S (log2)” value in the data set with HeLa Kyoto [1] was -0.184. Moreover, in the data set with HeLa Kyoto [2], the “solubility change mitosis (log2)” value was -0.161. Further, the thermal stability score is 0.664 in the data set on HeLa Kyoto [3] (setting [5]) and 1.01 in the data set with HeLa Kyoto [3] (cell cycle stage: mitosis). The melting temperature is 48.9 °C with HeLa Kyoto [4] (cell cycle stage: G1/S) and 49.6 °C with HeLa Kyoto [4] (cell cycle stage: mitosis).
With “MDVNIAPLRAWDDFFPGSDRFARPDFRDISKWNNRVVSNLLYYQTNYLVVAAMMISIVGFLSPFNMILGGIVVVLVFTGFVWAAHNKDVLRRMKKRYPTTFVMVVMLASYFLISMFGGVMVFVFGITFPLLLMFIHASLRLRNLKNKLENKMEGIGLKRTPMGIVLDALEQQEEGINRLTDYISKVKE [ARL6IP5]”, the “solubility in G1/S (log2)” value with HeLa Kyoto [1] was -0.0879. For the same sequence, the “solubility change mitosis (log2)” value in the data set on HeLa Kyoto [2] is -0.126. Also, the thermal stability score in the data set on HeLa Kyoto [3] (setting [5]) worked out at 0.94; in the data set on HeLa Kyoto [3] (cell cycle stage: mitosis), 0.797. In addition, the melting temperature with HeLa Kyoto [4] (cell cycle stage: G1/S) amounted to 56.4 °C; with HeLa Kyoto [4] (cell cycle stage: mitosis) it was 57.5 °C.
As to “MDVTSSSGGGGDPRQIEETKPLLGGDVSAPEGTKMGAVPCRRALLLCNGMRYKLLQEGDIQVCVIRHPRTFLSKILTSKFLRRWEPHHLTLADNSLASATPTGYMENSVSYSAIEDVQLLSWENAPKYCLQLTIPGGTVLLQAANSYLRDQWFHSLQWKKKIYKYKKVLSNPSRWEVVLKEIRTLVDMALTSPLQDDSINQAPLEIVSKLLSENTNLTTQEHENIIVAIAPLLENNHPPPDLCEFFCKHCRERPRSMVVIEVFTPVVQRILKHNMDFGKCPRLRLFTQEYILALNELNAGMEVVKKFIQSMHGPTGHCPHPRVLPNLVAVCLAAIYSCYEEFINSRDNSPSLKEIRNGCQQPCDRKPTLPLRLLHPSPDLVSQEATLSEARLKSVVVASSEIHVEVERTSTAKPALTASAGNDSEPNLIDCLMVSPACSTMSIELGPQADRTLGCYVEILKLLSDYDDWRPSLASLLQPIPFPKEALAHEKFTKELKYVIQRFAEDPRQEVHSCLLSVRAGKDGWFQLYSPGGVACDDDGELFASMVHILMGSCYKTKKFLLSLAENKLGPCMLLALRGNQTMVEILCLMLEYNIIDNNDTQLQIISTLESTDVGKRMYEQLCDRQRELKELQRKGGPTRLTLPSKSTDADLARLLSSGSFGNLENLSLAFTNVTSACAEHLIKLPSLKQLNLWSTQFGDAGLRLLSEHLTMLQVLNLCETPVTDAGLLALSSMKSLCSLNMNSTKLSADTYEDLKAKLPNLKEVDVRYTEAW [CMIP]”, the “solubility in G1/S (log2)” value in the data set on HeLa Kyoto [1] turned out to be 0.271. Also, in the data set with HeLa Kyoto [2], the “solubility change mitosis (log2)” value is -0.224. The thermal stability score with HeLa Kyoto [3] (setting [5]) worked out at 0.861; in the data set on HeLa Kyoto [3] (cell cycle stage: mitosis) it was 0.998. Moreover, the results for the melting temperature with HeLa Kyoto [4] (cell cycle stage: G1/S) and in the data set on HeLa Kyoto [4] (cell cycle stage: mitosis) were 50.5 °C and 48.7 °C, respectively.
“MDWVMKHNGPNDASDGTVRLRGLPFGCSKEEIVQFFQGLEIVPNGITLTMDYQGRSTGEAFVQFASKEIAENALGKHKERIGHRYIEIFRSSRSEIKGFYDPPRRLLGQRPGPYDRPIGGRGGYYGAGRGSMYDRMRRGGDGYDGGYGGFDDYGGYNNYGYGNDGFDDRMRDGRGMGGHGYGGAGDASSGFHGGHFVHMRGLPFRATENDIANFFSPLNPIRVHIDIGADGRATGEADVEFVTHEDAVAAMSKDKNNMQHRYIELFLNSTPGGGSGMGGSGMGGYGRDGMDNQGGYGSVGRMGMGNNYSGGYGTPDGLGGYGRGGGGSGGYYGQGGMSGGGWRGMY [HNRNPH3]”: in the data set on HeLa Kyoto [1], the “solubility in G1/S (log2)” value was -0.0906. For the same sequence, in the data set with HeLa Kyoto [2], the “solubility change mitosis (log2)” value is 0.282. For the same sequence, the results for the thermal stability score in the data set with HeLa Kyoto [3] (setting [5]) and with HeLa Kyoto [3] (cell cycle stage: mitosis) were 3.81 and 9.58, respectively. In addition, the values for the melting temperature with HeLa Kyoto [4] (cell cycle stage: G1/S) and in the data set with HeLa Kyoto [4] (cell cycle stage: mitosis) were 45.4 °C and 47.7 °C, respectively.

The record behind these values is the supplement of paper PMC5998384.
